The term stoichiometry N denotes a count of units in the complex or per binding partner.

Results on two molecules are retold here after paper PMC3093317 (Molecular Biology of the Cell, 2011).

For data set [1], the target named is HA-tagged YadA-MA expressed in E. coli (Yersinia enterocolitica) (UniProt P0C2W0). The data set can be described thus: SDS-PAGE of the SDS-stable oligomer with monomerization by boiling in urea.
Data set [2] deals with the molecule itself. Described as above.

In data set [1], “HA-tagged YadA-MA expressed in E. coli (from UniProt P0C2W0 335-422) (domain or fragment)” had a stoichiometry N of 3.

B1: HA-tagged YadA-MA-S417G, expressed in yeast (domain or fragment)
chain: FHQLDNRLDKLDTRVDKGLASSAALNSLFQPYGVGKVNFTAGVGGYRSSQALAIGSGYRVNESVALKAGVAYAGSSDVMYNAGFNIEW
As to B1, the “stoichiometry N” value in data set [2] was found to be 3.
